{"source": "paper PMC7881018", "about": "“Granulovirus PK-1 kinase activity relies on a side-to-side dimerization mode centered on the regulatory αC helix” (Nature Communications, 2021)", "key": {"[1]": {"target": "Cydia pomonella granulovirus protein kinase-1 (PK-1), full-length wild type (pPROEX Htb construct) (Cydia pomonella granulovirus (CpGV))", "experiment": "AUC; sedimentation velocity, 0.9 mg/mL (27 μM), 20 °C, 50,000 rpm, 20 mM HEPES pH 7.5, 200 mM NaCl; c(s) model"}, "[2]": {"target": "Cydia pomonella granulovirus protein kinase-1 (PK-1), full-length wild type (pPROEX Htb construct) (Cydia pomonella granulovirus (CpGV))", "experiment": "SEC"}, "[3]": {"target": "Cydia pomonella granulovirus protein kinase-1 (PK-1), full-length wild type (pPROEX Htb construct) (Cydia pomonella granulovirus (CpGV))", "experiment": "SAXS with inline SEC; 5 mg/mL (152 μM) injected on Superdex 200 5/150 Increase, 20 mM HEPES pH 7.5, 200 mM NaCl, 5% glycerol, 12 °C; scatter compared with the crystal dimer (CRYSOL), mass by SAXSMoW2"}, "[4]": {"target": "PK-1 D160N, full length (Cydia pomonella granulovirus (CpGV))", "experiment": "SEC"}, "[5]": {"target": "PK-1 15-279, truncated PK-1 lacking the domain-swapped N-terminal helix (Cydia pomonella granulovirus (CpGV))", "experiment": "SEC"}, "CpGV PK-1": {"target": "T1, CpGV PK-1 (Cydia pomonella granulosis virus (isolate Mexican), UniProt Q91F41)", "T1 construct": "gene orf3 pk-1; full-length (residues 1-279), E. coli expressed; assay protein codon-optimised, His6 tag cut by TEV; crystal protein amplified from genomic DNA, TEV-cleavable His6-MBP tag; homodimer 66 kDa", "experiment": "X-ray crystal structure, […] A", "assay_type": "binding", "settings": "co-crystallised with 1 mM AMP and 10 mM MnCl2; ATP site; 18 C"}, "[6]": {"target": "PK-1 D141N, full length (Cydia pomonella granulovirus (CpGV))", "experiment": "SEC"}, "[7]": {"target": "PK-1 K49A, full length (Cydia pomonella granulovirus (CpGV))", "experiment": "SEC"}, "[8]": {"target": "PK-1 E217DNEEE>QNNQQQ, acidic αF-αG loop mutant (Cydia pomonella granulovirus (CpGV))", "experiment": "SEC"}}, "data": [{"molecule": "Cydia pomonella granulovirus protein kinase-1 (PK-1), full-length wild type (pPROEX Htb construct) (enzyme)", "values": [{"measurement": "stoichiometry N", "setting": "[1]", "result": 2}, {"measurement": "stoichiometry N", "setting": "[2]", "result": 2}, {"measurement": "stoichiometry N", "setting": "[3]", "result": 2}]}, {"molecule": "PK-1 D160N, full length (enzyme)", "values": [{"measurement": "stoichiometry N", "setting": "[4]", "result": 2}]}, {"molecule": "PK-1 15-279, truncated PK-1 lacking the domain-swapped N-terminal helix (domain or fragment)", "values": [{"measurement": "stoichiometry N", "setting": "[5]", "result": 2}]}, {"molecule": "Nc1ncnc2c1ncn2[C@@H]1O[C@H](COP(=O)(O)O)[C@@H](O)[C@H]1O", "note": "[AMP]", "values": [{"measurement": "X-ray crystal structure, 2.01 A", "setting": "CpGV PK-1", "result": "crystal structure of PK-1 from C. pomonella granulovirus (CpGV) in complex with AMP"}]}, {"molecule": "PK-1 D141N, full length (enzyme)", "values": [{"measurement": "stoichiometry N", "setting": "[6]", "result": 2}]}, {"molecule": "PK-1 K49A, full length (enzyme)", "values": [{"measurement": "stoichiometry N", "setting": "[7]", "result": 2}]}, {"molecule": "PK-1 E217DNEEE>QNNQQQ, acidic αF-αG loop mutant (enzyme)", "values": [{"measurement": "stoichiometry N", "setting": "[8]", "result": 2}]}]}
